{"source": "the DeepSol protein solubility set"}
{"assay": "soluble on expression in E. coli; label from the status in PepcDB or PDB records"}
{"sequence": "MSKTIIKNIGKIVSGDIKSPVLQADTIVVEDGLIAAIGGEELMKDAGDATIIDAAGSTVTPGLLDTHVHVSGGDYAPRQKTMDFISSALHGGVTTMISAGSPHFPGRPKDAAGTKALAITLSKSYYNARPAGVKVHGGAVILEKGLTEEDFIEMKKEGVWIVGEVGLGTIKNPEDAAPMVEWAHKHGFKVQMHTGGTSIPGSSTVTADDVIKTKPDVVSHINGGPTAISVQEVDRIMDETDFAMEIVQCGNPKIADYVARRAAEKGQLGRVIFGNDAPSGTGLIPLGILRNMCQIASMSDIDPEVAVCMATGNSTAVYGLNTGVIAPGKEADLIIMDTPLGSVAEDAMGAIAAGDIPGISVVLIDGEAVVTKSRNTPPAKRAAKIL", "soluble on expression in E. coli": "soluble"}
{"sequence": "GNQRKVSVVGAQSTMDVKDIKMPAASLSSAISGRIAGVVAVQRSGEPGHDESDIWIRGLSSLLGQSSSPLVLVDGVERSFNNIDPEDIESFTVLKDASATAVYGVRGANGVVIVKTKPGKVG", "soluble on expression in E. coli": "soluble"}
{"sequence": "VRAPGVRAADGAGRVVLYLHGGAFVMCGPNSHSRIVNALSGFAESPVLIVDYRLIPKHSLGMALDDCHDAYQWLRARGYRPEQIVLAGDSAGGYLALALAQRLQCDDEKPAAIVAISPLLQLAKGPKQDHPNIGTDAMFPARAFDALAAWVRAAAAKNMVDGRPEDLYEPLDHIESSLPPTLIHVSGSEVLLHDAQLGAGKLAAAGVCAEVRVWPGQAHLFQLATPLVPEATRSLRQIGQFIRDATADSSLSPVHRSRYVAGSPRAASRGAFGQSPI", "soluble on expression in E. coli": "not soluble"}
{"sequence": "QHTEERELKKRLMNTARTVSEMTEVKEALARKKQTEAVRHAVEEIRMINEADYIVVMDMNHIRYTHPVSTSIGKKSEGADEEAAFAEHIYFSEAKGEIGTAVRAFYPVKDQDLNQIGVVLVGKTLPGIADILLHLKRD", "soluble on expression in E. coli": "not soluble"}
{"sequence": "MSSTIKAIAVLKGDSPVQGVITFTQESSGGPVTVSGEIKNMDANAQRGFHVHQFGDNSNGCTSAGPHFNPTGTNHGDRTAEVRHVGDLGNVKTDASGVAKVQISDSQLSLVGPHSIIGRTIVIHAGEDDLGKTDHPESLKTGNAGARSACGVIGIAAAAALEHHHHHH", "soluble on expression in E. coli": "soluble"}
{"sequence": "MSLAKLTINDIAKKAKTSKTTVSFYLNGKFDKMSPDTKRRIEQVIEETNYSPNIMARSLKLKKSNLIGVVVADITNPFSSNIVKGIGEITRRKGYQILVGSTNLDYYNEEEYFKKMLDMGVDGFIVQPTKNFDKLYPAIKNKGKKIVVLDSVSSRYTGKWVKTNNYEIVYEAVLKLAEKGYEEFILVTEAPDKLAARMERKTGFEDAVNKINCKSFIEIINENTEVDEIAEMLKINISNNKKTVIFAINGKILQKVFKAVKMEGFDVPNHVGIIGFDKWDWTMYASPSVTTIDQPTYEEGKYAAKMLIEMIEENDDFYKSEVFDCNINWEESTDEGHHHHHH", "soluble on expression in E. coli": "soluble"}
{"sequence": "INFPILDEPLVLSNATILTIEDVSVYSSLVKHFYQYDVDEHLKLFDDKQKSLKATELMLVTDILGYDVNSAPILKLIHGDLENQFNEKPEVKSMVEKLAATITELIAFECLENELDLEYDEIKILELIKALGVKIETQSDTIFEKCFEIIQVYHYLTKKNLLVFVNSGAYLTKDEVIKLCEYINLMQKSVLFLEPRRLYDLPQYVIDKDYFLIGEN", "soluble on expression in E. coli": "not soluble"}
{"sequence": "GKRSERQQADMEMMKDRFAKLLLGEDMSGGGKGVSSALALSNAITNLAASIFGEQTKLQPMPQDRQARWKKEIDWLLSVTDHIVEFVPSQQTSKDGVCTEIMVTRQRGDLLMNIPALRKLDAMLIDTLDNFRGHNEFWYVSRDSEEGQQARNDRTNDKWWLPPVKVPPGGLSEPSRRMLYFQKDSVTQVQKAAMAINAQVLSEMEIPESYIDSLPKNGRASLGDSIYKSITEEWFDPEQFLAMLDMSTEHKVLDLKNRIEASVVIWKRKLHTKDTKSSWGSAVSLEKRELFEERAETILVLLKQKFPGLPQSSLDISKIQFNKDVGQAVLESYSRILESLAYTVMSRIEDVLYTDTLALKQTLLA", "soluble on expression in E. coli": "soluble"}
{"sequence": "MVDLGFSLYPERYDVTKSKAYIDLCHSYGAKRLFMSLLQLAPADHQMFHCYAELIAYANQLGIRVIADVSPSFISQAGWSDQLIERAHAFGLAGLRLDEALPLAEIVTLTRNPFGLKIELNMSTDKQLLMSLLATDAERSNIIGCHNFYPHEFTGLSWQHFKDMSRFYHEHDIETAAFITAQSASEGPWLLAEGLPTVEDHRHLPIGLQVELMKAIGTIDNILISNQFISEEELAACTQALARPVTTIKVRPIIDLTEVEEQIIGYPHCYRGDVSDYVIRSTMPRLVYAQESIAPRDQSKEVKRGSIIIDNDRYHRYKGELQIALKNFTVSSKANVVAEVREDYLSLLDDLRPWQEFCLEIAPS", "soluble on expression in E. coli": "not soluble"}
{"sequence": "MSDFLKLVGENIRFLRKKRGLTQEELAEQINLQQAYIGGVERGERNISMLTLQKIAVGLEVSPDEVLNFSNVNLIDNPQREESLSIITSLLHQKNVNELQFILKFLYNFSEFVESNSNK", "soluble on expression in E. coli": "not soluble"}
{"sequence": "EERLKMSTTTSTQDSGLLKVLLPPFEKKNNVKVDVIAVGTGQALKLGEAGDVDVVFVHARKLEDKFVADGFGVNRKDVMYNDFVIVGPKNDPAGIAKAKTAAEALKLLATKGATFISRGDKSGTHTKELDLWKSAGVDPKGNWYVEAGQGMGPVITMATERRAYTLTDRGTYNAFKGAKTDLVILFQGEKGLFNPYGIMAVNPKKFPHVKYDLAMKLIDYVTGPEGLKIISDYKAHG", "soluble on expression in E. coli": "not soluble"}
{"sequence": "MATYRQRGKKKLWDYRIFNEKSELVASGSGFKTKREAMNEAMRIEQQKLLVNSISSDITLYDLWFEWYSLIIKPSNLAETTKNKYFTRGSVIRKLFGNQKVNKIKHSAYQRKLNTYAEKYTKNHVRRLNSDIKKAIQFAKRDGVLLSDFTDGVVIAGRKFVKDADDKYLHSIFDYKKVISYLENNLDYSNSIVYYLLLVLFKTGLRVGEALALTWDDVNFEDLEIKTYRRFSGDKGTFSPPKTKTSIRTIPISQSLALILRDLKDDQQVMLKNLKIVNMNNQIFYDYRYGVSTNSAINKSLKNVLKILNINSKMTATGARHTYGSYLLAKGVDIWVVARLMGHKDITQLLETYGHVLTEVINKEYETVRSLVS", "soluble on expression in E. coli": "not soluble"}
{"sequence": "MWQKSALTTVSISLPQQAVYSGMRYEVNISAAKCDGTGVTFGTINNCTITLSLPAGASIITRHFSADL", "soluble on expression in E. coli": "not soluble"}
{"sequence": "AHHHHHHGSKVIASAPAKVILFGEHSVVYGKPAIAAAIDLRTFVEAELIREKKIRIEAHDIKVPGLTVSFSENEIYFETDYGKAAEVLSYVREAINLVLEEADKKNVGIKVSITSQIPVGAGLGSSAAVAVATIGAVSKLLGLELSKEEIAKMGHKTELLVQGASSGIDPTVSAIGGFIFYEKGKFEHLPFMELPIVVGYTGSSGPTKELVAMVRKRYEEMPELIVPILEAMGKVVEKAKDVILSNVDKEEKFERLGVLMNINHGLLDALGVSTKKLSELVYAARVAGALGAKITGAGGGGCMYALAPNKQREVATAIRIAGGTPMITEISREGLKIEEVIK", "soluble on expression in E. coli": "not soluble"}
{"sequence": "APTIPQGQGKVTFNNTVVDAPCSISQKSADQSIDFGQLSKSFLEAGGVSKPMDLDIELVNCDITAFKGGNGAKKGTVKLAFTGPIVNGHSDELDTNGGTGLAIVVQGAGKNVVFDGSEGDANTLKDGENVLHYTAVVKKSSAVGAAVTEGAFSAVANFNLTYQ", "soluble on expression in E. coli": "soluble"}
{"sequence": "GPGSMYFTSAKDVVRLCGGGLAPEVTFAIDDYPATDSIGYNSSAVAGGGGTNVDGASMSNVTTAIQRSLRRASRTAGQPTLRPTRTEQVCGPAVLGAGEALGLAPFKYVCYTVSTTSVVAPASGSASAASKGAKGDGGATYVEFVDAFRIRTSDVHAAVIDIAAQQRAERLQHSPNLYVPWCAAAPGEVVPRGAARTVADFIVAARHRTLYSDYAATELLVRQSWLLQDAAAHTIRALMPHMVPRTYMPGEVMACPHTPGSLRQLCFLRRGRLNVFVVPKSGITPVLLMKGESPDVLVTSRFSRDGCGCWCLRETPTAQPAEVVESGASFGELSVLFHEPRHCILRADTVCDVWCLPRQNFAALMQRDAALRDGLLRKAAVLRVEWMGEQRFTRALAQQLRAGSELLKPLPDIAIRLIQERLEPVIYTPGSLVASTSTRCTEMTFIMRGTVSTIWKVLLHTAQGTCWARDA", "soluble on expression in E. coli": "not soluble"}
{"sequence": "MAPTSSIEIVLDKTTASVGEIVTASINIKNITNFSGCQLNMKYDPAVLQPVTSSGVAYTKSTMPGAGTILNSDFNLRQVADNDLEKGILNFSKAYVSLDDYRTAAAPEQTGTVAVVKFKVLKEETSSISFEDTTSVPNAIDGTVLFDWNGDRIQSGYSVIQPAVINLDMTKASYITMGYDKNAAEVGEIIKATVKINKITNFSGYQVNIKYDPTVLQAVNPKTGVAYTNSSLPTSGELLVSEDYGPIVQGVHKISEGILNLSRSYTALEVYRASESPEETGTLAVVGFKVLQKKATTVVFEDSETMPNGITGTTLFNWYGNRIQSGYFVIQPGEINSAPIATLEHHHHHH", "soluble on expression in E. coli": "soluble"}
{"sequence": "MGSDKIHHHHHHMMWEQFKKEKLRGYLEAKNQRKVDFDIVELLDLINSFDDFVTLSSCSGRIAVVDLEKPGDKASSLFLGKWHEGVEVSEVAEAALRSRKVAWLIQYPPIIHVACRNIGAAKLLMNAANTAGFRRSGVISLSNYVVEIASLERIELPVAEKGLMLVDDAYLSYVVRWANEKLLKGKEKLGRLQEALESLQRENAYCSD", "soluble on expression in E. coli": "soluble"}
{"sequence": "MGSDKIHHHHHHMTFDEYEVAINSEFTLQGTLTKPKAGGKYAAVIIIAGSGEIDRDGTILPLKLESNIYKDLAHVMAKLGVVTLRFDKRGVGKSDGEFLKTGMWDLVNDIESTITYLKEQPFVDPENIILAGHSEGCMLATVVNARTPVNGLILLTGAAESLEEATKRQREIAYKELKEQKGIKGKLMRLLDVEKRGEKQMEKIKEKMMNTEKDTIKVGFKPMNAKWFREHFQHDIYKDLQQVTCPVLAIAGDKDFQANPEKAKRIGDYVQGDSEVHVIKDMDHSLKSFEGDFKALEFKKNYEEGAGKPLHPMLEEIIMNWISTNFILHKIPVSTLSEYEGDGKESNCL", "soluble on expression in E. coli": "not soluble"}
{"sequence": "MGSDKIHHHHHHMGEYLTLPMEVYSGILVTHEGVFHGDLIVEEMAFEESRVEKDDFVISPTFFNAHTHLGDAALREAPRLDLVSIVGPGGYKHRMLSQIDSKTLRQEVELEVRISRDAGTSHFLDFREGGKAGLEIVKGIDGVLPLARPTSVEEAEEVEAFGFAYSSARDHDLKLMEEVREIARRRKMLFAIHAGEKDCADVDAALALEPDFVVHMNSCPEKIREFVEAEIPIVSCIRSNAFFGLLNKKSYELLSEYEKWMLGTDNAMISTASMLDEMHFAAYLIGKEKAILRAATASYAVFGFRHGYVVFNRNCSFRRTSDPLLTLVRRAGVKDIERVLIL", "soluble on expression in E. coli": "not soluble"}
{"sequence": "MTDRLSILVPIRVLEGESVPEGVPELLAHAHVVLLGYHVIPEQTAPGQARMQFEDRATERLDEYQEMFEDAGATVERRLVFTHNGQKTIDRMIAEHDCMAVLVPNATGPVEDVLVPVRGAIGVDRLARVVASVFGEMDADVTLYHVADEDTTDDDIQTLLGGLADRLAEFGMDPSTIETRIDRDQNPLDAIVDVSDGFDTVVMGETDPSLATFVFGMPADQVANRFLGPVFVAQRERPSADEDE", "soluble on expression in E. coli": "not soluble"}
{"sequence": "SFAKTGQLFNQTHLEEKKEIAQKAIQFIQEGDSIILDSGSTTTEIAKLLMNYKDLTVITNALNIALILGENHGINLIVTGGEFKAPTLSLTGKMAADSFKDIRANKLFLATAGISSDMKLTYPSLSDLVVKSAMIESASKVYLVADCSKI", "soluble on expression in E. coli": "not soluble"}
{"sequence": "QADAGPDKELTLPVDSTTLDGSKSSDDQKIISYLWEKTQGPDGVQLENANSSVATVTGLQVGTYVFTLTVKDERNLQSQSSVNVIVKEE", "soluble on expression in E. coli": "soluble"}
